Data published in article doi:10.1101/2024.08.08.607204, “Mechanism of ASF1 Inhibition by CDAN1” (bioRxiv, 2024).
Where “and” joins values, the source holds several entries; their conditions need not be identical. Equal entries are not always repeated. One block for each binder: values may come before it.

B1: Strep-tagged CDAN1 (ST-CDAN1), wildtype (natural protein, human)
chain: MAAVLESLLREEVSVAAVVRWIARSTQGSEDNAGEAAALSSLRALRKEFVPFLLNFLREQSSRVLPQGPPTPAKTPGASAALPGRPGGPPRGSRGARSQLFPPTEAQSTAAEAPLARRGGRRRGPGPARERGGRGLEEGVSGESLPGAGGRRLRGSGSPSRPSLTLSDPPNLSNLEEFPPVGSVPPGPTGTKPSRRINPTPVSEERSLSKPKTCFTSPPISCVPSSQPSALDTSPWGLGLPPGCRSLQEEREMLRKERSKQLQQSPTPTCPTPELGSPLPSRTGSLTDEPADPARVSSRQRLELVALVYSSCIAENLVPNLFLELFFVFQLLTARRMVTAKDSDPELSPAVLDSLESPLFQSIHDCVFFAVQVLECHFQVLSNLDKGTLKLLAENERLLCFSPALQGRLRAAYEGSVAKVSLVMPPSTQAVSFQPETDNRANFSSDRAFHTFKKQRDVFYEVLREWEDHHEEPGWDFEKGLGSRIRAMMGQLSAACSHSHFVRLFQKQLLQMCQSPGGAGGTVLGEAPDVLSMLGADKLGRLWRLQERLMAPQSSGGPCPPPTFPGCQGFFRDFILSASSFQFNQHLMDSLSLKIQELNGLALPQHEPNDEDGESDVDWQGERKQFAVVLLSLRLLAKFLGFVAFLPYRGPEPPPTGELQDSILALRSQVPPVLDVRTLLQRGLQARRAVLTVPWLVEFLSFADHVVPLLEYYRDIFTLLLRLHRSLVLSQESEGKMCFLNKLLLLAVLGWLFQIPTVPEDLFFLEEGPSYAFEVDTVAPEHGLDNAPVVDQQLLYTCCPYIGELRKLLASWVSGSSGRSGGFMRKITPTTTTSLGAQPSQTSQGLQAQLAQAFFHNQPPSLRRTVEFVAERIGSNCVKHIKATLVADLVRQAESLLQEQLVTQGEEGGDPAQLLEILCSQLCPHGAQALALGREFCQRKSPGAVRALLPEETPAAVLSSAENIAVGLATEKACAWLSANITALIRREVKAAVSRTLRAQGPEPAARGERRGCSRACEHHAPLPSHLISEIKDVLSLAVGPRDPDEGVSPEHLEQLLGQLGQTLRCRQFLCPPAEQHLAKCSVELASLLVADQIPILGPPAQYRLERGQARRLLHMLLSLWKEDFQGPVPLQLLLSPRNVGLLADTRPREWDLLLFLLRELVEKGLMGRMEIEACLGSLHQAQWPGDFAEELATLSNLFLAEPHLPEPQLRACELVQPNRGTVLAQS
notes: Codanin-1 (CDAN1) cDNA from Horizon Discovery/Dharmacon; a point mutation of the clone (S421F) was corrected; in pCDNA3.1; Dimer by SEC-MALS and cryo-EM; Same plasmid used in Expi293 (purifications) and in Flp-In 293 T-REx (pulldowns); kept as one molecule; also called WT CDAN1; Strep-CDAN1; source: Expi293, transiently transfected, in lysate and purified in complexes (anti-FLAG, Strep-Tactin); …
B3: FLAG-tagged CDIN1 (F-CDIN1) (natural protein, UniProt Q9Y2V0 1-281, looked up)
chain: MILTKAQYDEIAQCLVSVPPTRQSLRKLKQRFPSQSQATLLSIFSQEYQKHIKRTHAKHHTSEAIESYYQRYLNGVVKNGAAPVLLDLANEVDYAPSLMARLILERFLQEHEETPPSKSIINSMLRDPSQIPDGVLANQVYQCIVNDCCYGPLVDCIKHAIGHEHEVLLRDLLLEKNLSFLDEDQLRAKGYDKTPDFILQVPVAVEGHIIHWIESKASFGDECSHHAYLHDQFWSYWNRFGPGLVIYWYGFIQELDCNRERGILLKACFPTNIVTLCHSIA
notes: CDIN1 (C15orf41) cDNA synthesized by IDT, in pCDNA3.1; source: Expi293, transiently transfected, in lysate and purified in complexes (anti-FLAG, Strep-Tactin); not shown: 3xFLAG, N-terminal, kept

How the values were obtained:
[1] = molecular target: the molecule itself; assay: SEC-MALS; 200 μg of each purified complex at 5 μM on an SRT SEC-300 column with DAWN HELEOS II detector; dn/dc 0.185
[2] = molecular target: B3; assay: cryo-EM structure; purified CDAN1 C-term:CDIN1 (C:C) complex crosslinked with BS3, 0.78 mg/mL; single-particle cryo-EM, ~6 Å reconstruction; conditions: both partners purified
[3] = molecular target: B1; assay: SEC-MALS; 200 μg of each purified complex at 5 μM on an SRT SEC-300 column with DAWN HELEOS II detector; dn/dc 0.185; conditions: both partners purified

Binder: B1
stoichiometry N [1]: 2 copies of CDAN1 in the C:A complex and 2 copies of CDAN1 in the C:C:A complex

binding result [2]: binds
B2: CDAN1 MA3 domain (ST-CDAN1C, residues 1008-1227) (domain or fragment, human, UniProt Q8IWY9 1008-1227, looked up)
chain: GERRGCSRACEHHAPLPSHLISEIKDVLSLAVGPRDPDEGVSPEHLEQLLGQLGQTLRCRQFLCPPAEQHLAKCSVELASLLVADQIPILGPPAQYRLERGQARRLLHMLLSLWKEDFQGPVPLQLLLSPRNVGLLADTRPREWDLLLFLLRELVEKGLMGRMEIEACLGSLHQAQWPGDFAEELATLSNLFLAEPHLPEPQLRACELVQPNRGTVLAQS
notes: Codanin-1 (CDAN1), MA3 domain, residues 1008-1227; also called Strep-CDAN1C; CDAN1 C-term; source: Expi293, transiently transfected, purified in complex with F-CDIN1 (anti-FLAG, Strep-Tactin); not shown: 3xStrep-II-TEV, N-terminal, kept

Binder: B3
stoichiometry N [3]: 2 copies of CDIN1 per two copies of CDAN1
